# US20240376151A1, “STAPLED PEPTIDES AND METHODS THEREOF” (FOG PHARMACEUTICALS, INC., priority 2022, published 2024)
# Numbered stars: 1 amine (or outer) side, 2 acyl side, 3 side chain; on linkers, the order of the positions; unused ones are H or OH. Bridge positions count the residues as written; N and C are the ends. Ends that are not written are not given here. Phenylene(1,4-NHCOCH2)2 = O=C(C[*:1])Nc1ccc(NC(=O)C[*:2])cc1
# Target: CDK2 (Homo sapiens, UniProt P24941)
# Test: Phage Library Screening with NGS, CDK2
# Format: binding
# Set-up: Full length CDK2 (residues 1-298) with an N-terminal GST-3C-6×his-TEV tag; GST-3C-6×his-TEV (N, cleaved yes); made in house; host or cells: Sf9 (Bac-to-Bac baculovirus)
# Settings: for phage screen counts, Target Concentration 10: CDK2, target concentration 10; for phage screen counts, Target Concentration 30: CDK2, target concentration 30; for phage screen counts, Target Concentration 100: CDK2, target concentration 100; for phage screen counts, Target Concentration 300: CDK2, target concentration 300
# [1] = CDK2, target concentration 1000, first column
# [2] = CDK2, target concentration 1000, second column
Sequence,"phage screen counts, Target Concentration 10","phage screen counts, Target Concentration 30","phage screen counts, Target Concentration 100","phage screen counts, Target Concentration 300","phage screen counts, Target Concentration 1000 [1]","phage screen counts, Target Concentration 1000 [2]"
"DPAWWVCAIAAMDCHEQ (linker 7-14 via Phenylene(1,4-NHCOCH2)2 (inferred))",0,0,0,139,216,422
"DPAWYECIVAAIECVEY (linker 7-14 via Phenylene(1,4-NHCOCH2)2 (inferred))",0,0,79,131,54,115
"DPAWWRCSIAAVDCEMQ (linker 7-14 via Phenylene(1,4-NHCOCH2)2 (inferred))",0,0,0,93,238,217
"PACVSAFFACL (linker 3-10 via Phenylene(1,4-NHCOCH2)2 (inferred))",0,0,0,0,151,19
"PFECLSAFFSC (linker 4-11 via Phenylene(1,4-NHCOCH2)2 (inferred))",0,0,0,1,212,44
"PECLEAFFDCR (linker 3-10 via Phenylene(1,4-NHCOCH2)2 (inferred))",0,9,0,84,344,328
"WSCLSAYFSC (linker 3-10 via Phenylene(1,4-NHCOCH2)2 (inferred))",0,0,0,0,19,189
"YECLEAFFNC (linker 3-10 via Phenylene(1,4-NHCOCH2)2 (inferred))",0,0,0,2,208,193
"PMACLSAFFTC (linker 4-11 via Phenylene(1,4-NHCOCH2)2 (inferred))",0,0,0,16,114,176
"DPAWWECIVAALECSDR (linker 7-14 via Phenylene(1,4-NHCOCH2)2 (inferred))",0,0,0,62,76,90
"DPAWWHCSIAALECHTT (linker 7-14 via Phenylene(1,4-NHCOCH2)2 (inferred))",0,18,25,216,195,358
"CLSAFFMCSS (linker 1-8 via Phenylene(1,4-NHCOCH2)2 (inferred); not fully specified (C-terminus))",0,0,0,0,90,50

# Results, then the sequence that gave them:
"phage screen counts, Target Concentration 10","phage screen counts, Target Concentration 30","phage screen counts, Target Concentration 100","phage screen counts, Target Concentration 300","phage screen counts, Target Concentration 1000 [1]","phage screen counts, Target Concentration 1000 [2]",Sequence
0,0,0,49,982,405,"FECLDAFFSC (linker 3-10 via Phenylene(1,4-NHCOCH2)2 (inferred); not fully specified (N-terminus, C-terminus))"
0,0,13,39,119,102,"DPAWWRCSIAAMECHHD (linker 7-14 via Phenylene(1,4-NHCOCH2)2 (inferred))"
0,12,0,286,411,473,"DPAWYECVVAAIECHAY (linker 7-14 via Phenylene(1,4-NHCOCH2)2 (inferred))"
0,0,8,46,206,115,"DPAWYACIVAAVDCEHS (linker 7-14 via Phenylene(1,4-NHCOCH2)2 (inferred))"
0,1,9,9,422,142,"PECLVAFFSCV (linker 3-10 via Phenylene(1,4-NHCOCH2)2 (inferred))"
0,0,1,0,39,8,"PCMDAFFSCVW (linker 2-9 via Phenylene(1,4-NHCOCH2)2 (inferred))"
0,10,3,93,65,230,"DPAWWRCSVAAIDCHWN (linker 7-14 via Phenylene(1,4-NHCOCH2)2 (inferred))"
0,0,10,85,65,77,DPAWWVCSIAAIECESS
0,0,0,7,18,51,"PCLDAFFYCVT (linker 2-9 via Phenylene(1,4-NHCOCH2)2 (inferred))"
0,0,73,973,909,998,"DPAWWMCTIAAIECETT (linker 7-14 via Phenylene(1,4-NHCOCH2)2 (inferred))"
0,0,0,61,314,257,"PCLEAFFSCVY (linker 2-9 via Phenylene(1,4-NHCOCH2)2 (inferred))"
29,0,0,0,111,330,"CLSAFFSCTY (linker 1-8 via Phenylene(1,4-NHCOCH2)2 (inferred); not fully specified (C-terminus))"
0,0,10,69,119,243,"DPAWWTCSVAAIQCWDS (linker 7-14 via Phenylene(1,4-NHCOCH2)2 (inferred))"
0,12,8,262,162,409,"DPAWWRCVVAALDCVDY (linker 7-14 via Phenylene(1,4-NHCOCH2)2 (inferred))"
0,0,51,193,195,102,"DPAWWTCIIAALECEEQ (linker 7-14 via Phenylene(1,4-NHCOCH2)2 (inferred))"
